Test results from article PMC8099778.

Target: myosin VI (mouse (endogenous in mouse brain)) (UniProt Q64331)
Assay: co-IP

Sequence of UniProt Q64331 (Q64331 whole entry): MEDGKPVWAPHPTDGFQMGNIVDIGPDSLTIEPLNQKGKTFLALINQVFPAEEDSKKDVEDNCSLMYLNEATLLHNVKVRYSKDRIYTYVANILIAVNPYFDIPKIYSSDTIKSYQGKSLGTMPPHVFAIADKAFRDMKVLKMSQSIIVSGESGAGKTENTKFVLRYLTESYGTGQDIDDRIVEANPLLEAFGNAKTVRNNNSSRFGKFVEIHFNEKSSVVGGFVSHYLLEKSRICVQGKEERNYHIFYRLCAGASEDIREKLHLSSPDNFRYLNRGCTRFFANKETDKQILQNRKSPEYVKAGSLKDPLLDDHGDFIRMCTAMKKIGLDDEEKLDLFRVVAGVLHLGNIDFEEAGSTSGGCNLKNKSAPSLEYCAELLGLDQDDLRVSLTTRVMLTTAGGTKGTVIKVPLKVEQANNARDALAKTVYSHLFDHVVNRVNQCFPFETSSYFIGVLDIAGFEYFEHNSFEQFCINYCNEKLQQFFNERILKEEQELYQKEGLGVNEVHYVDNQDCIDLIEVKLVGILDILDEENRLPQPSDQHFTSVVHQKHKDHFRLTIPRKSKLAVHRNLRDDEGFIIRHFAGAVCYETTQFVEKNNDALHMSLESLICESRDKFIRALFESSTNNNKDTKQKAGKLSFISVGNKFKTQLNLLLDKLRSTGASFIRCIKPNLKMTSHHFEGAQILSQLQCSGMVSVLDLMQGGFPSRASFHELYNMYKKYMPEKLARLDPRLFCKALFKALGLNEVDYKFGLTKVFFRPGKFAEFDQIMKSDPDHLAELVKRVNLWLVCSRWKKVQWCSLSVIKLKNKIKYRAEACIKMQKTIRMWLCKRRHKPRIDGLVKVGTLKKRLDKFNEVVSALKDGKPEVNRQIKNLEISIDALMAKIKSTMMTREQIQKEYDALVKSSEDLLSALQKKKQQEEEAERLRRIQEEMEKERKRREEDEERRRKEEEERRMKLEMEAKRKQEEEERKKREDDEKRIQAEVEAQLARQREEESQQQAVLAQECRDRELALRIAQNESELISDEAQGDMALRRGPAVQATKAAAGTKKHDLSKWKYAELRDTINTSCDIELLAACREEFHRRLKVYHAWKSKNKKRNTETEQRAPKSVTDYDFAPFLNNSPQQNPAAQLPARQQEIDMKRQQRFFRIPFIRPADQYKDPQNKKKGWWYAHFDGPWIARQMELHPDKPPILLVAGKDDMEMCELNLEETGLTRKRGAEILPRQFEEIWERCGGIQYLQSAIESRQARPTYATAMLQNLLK

Question: How did the DIC coprecipitation normalized to myosin VI immunoprecipitation (wt lysate) turn out when “dynein intermediate chain (from UniProt O88485 1-628) (natural protein)” was run?
Answer: 1.44
